Test results as given in patent publication US20060241020A1, “Protein tyrosine phosphatase inhibitors” (Applied Research Systems ARS Holdings N.V., priority 2002, published 2006).

Test: pNPP hydrolysis, kinetic parameters
Format: biochemical
Conditions: generic substrate pNPP, 0-60 mM, pH 6.8, room temperature
Protocol: For pNPP hydrolysis, 200 ng of PTP was incubated with varing amounts of the generic substrate (0-60 mM) in assay buffer (50 mM Tris pH 6.8 and 2 mM DTT) in a total volume of 50 μl at room temperature. Plates were read at 405 nm and kinetic parameters were determined using a non linear regression programme (Graphpad, Prism®).

B1: Sap-1WT: wild-type PTP-Sap1 catalytic domain (GST fusion) tested on pNPP (protein)
chain: LKRRNKKKQQKPELRDLVFSSPGDIPAEDFADHVRKNERDSNCGFADEYQQLSLVGHSQSQMVASASENNAKNRYRNVLPYDWSRVPLKPIHEEPGSDYINASFMPGLWSPQEFIATQGPLPQTVGDFWRLVWEQQSHTLVMLTNCMEAGRVKCEHYWPLDSQPCTHGHLRVTLVGEEVMENWTVRELLLLQVEEQKTLSVRQFHYQAWPDHGVPSSPDTLLAFWRMLRQWLDQTMEGGPPIVHCSAGVGRTGTLIALDVLLRQLQSEGLLGPFSFVRKMRESRPLMVQTEAQYVFLHQCILRFLQQSAQAPAEKEVPYEDVENLIYENVAAIQAHKLEV
modifications: left off: a dimerising Fc or GST
notes: wild-type PTP-Sap1 catalytic domain (GST fusion) tested on pNPP
- Km: 2660 µM
